Measured values taken from paper PMC11250029.

Molecular target: lavanducyanin halogenase (LvcH) (Streptomyces sp. CNZ-289)
Assay: SEC

## lavanducyanin halogenase (LvcH) (enzyme)
  stoichiometry N: 2
